This passage reports frequency of T cells with surface CAR before exposure to SKOV3 tumor cells and frequency of T cells with surface CAR five hours after exposure to SKOV3 tumor cells results from patent US20260078341A1, “TREATMENT OF CANCER USING CHIMERIC ANTIGEN RECEPTOR” (Novartis AG, priority 2014, published 2026).

The target in the assay is Folate receptor alpha on cells (SKOV3, A1847, T47D; low levels on 293T and IOSE6) (human) (UniProt P15328). Put plainly: cell-based or functional assay.
Sequence of Folate receptor alpha on cells (SKOV3, A1847, T47D; low levels on 293T and IOSE6) (human) (P15328 25-234, stated change not applied): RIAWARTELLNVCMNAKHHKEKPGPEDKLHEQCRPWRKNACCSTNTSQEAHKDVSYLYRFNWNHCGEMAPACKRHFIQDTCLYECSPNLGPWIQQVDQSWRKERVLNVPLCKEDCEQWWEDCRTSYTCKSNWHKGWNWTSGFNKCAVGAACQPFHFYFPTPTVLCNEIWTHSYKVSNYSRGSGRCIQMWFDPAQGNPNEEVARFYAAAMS

In the case of “MOv19-27z CAR (murine anti-human FRA MOv19 CAR)”, the frequency of T cells with surface CAR before exposure to SKOV3 tumor cells is 65 % of T cells and the frequency of T cells with surface CAR five hours after exposure to SKOV3 tumor cells was 1 % of T cells.
